These results are taken from patent US20150267232A1, “IN VIVO AND IN VITRO CARBENE INSERTION AND NITRENE TRANSFER REACTIONS CATALYZED BY HEME ENZYMES” (California Institute of Technology, priority 2012, published 2015).

A short description of this experiment: P450BM3 compilation plate screen (GC, cyclopropane peaks). In kind it is biochemical. Conditions: for ee (cis): (R,S)-(S,R); for Absolute activity: sum of the area of the cyclopropane peaks over the area of the internal standard.
Where [1] appears, read: chiral β-CDX GC, P450BM3 variants.
Where [2] appears, read: diastereomeric excess = ([cis] − [trans])/([cis] + [trans]), P450BM3 variants.

B1: WT F87A: P450BM3 variant: F87A (protein, listed as Bacillus megaterium)
chain: TIKEMPQPKTFGELKNLPLLNTDKPVQALMKIADELGEIFKFEAPGRVTRYLSSQRLIKEACDESRFDKNLSQALKFVRDFAGDGLATSWTHEKNWKKAHNILLPSFSQQAMKGYHAMMVDIAVQLVQKWERLNADEHIEVPEDMTRLTLDTIGLCGFNYRFNSFYRDQPHPFITSMVRALDEAMNKLQRANPDDPAYDENKRQFQEDIKVMNDLVDKIIADRKASGEQSDDLLTHMLNGKDPETGEPLDDENIRYQIITFLIAGHETTSGLLSFALYFLVKNPHVLQKAAEEAARVLVDPVPSYKQVKQLKYVGMVLNEALRLWPTAPAFSLYAKEDTVLGGEYPLEKGDELMVLIPQLHRDKTIWGDDVEEFRPERFENPSAIPQHAFKPFGNGQRACIGQQFALHEATLVLGMMLKHFDFEDHTNYELDIKETLTLKPEGFVVKAKSKKIPLGGIPSPSTEQSAKKVRKKAENAHNTPLLVLYGSNMGTAEGTARDLADIAMSKGFAPQVATLDSHAGNLPREGAVLIVTASYNGHPPDNAKQFVDWLDQASADEVKGVRYSVFGCGDKNWATTYQKVPAFIDETLAAKGAENIADRGEADASDDFEGTYEEWREHMWSDVAAYFNLDIENSEDNKSTLSLQFVDSAADMPLAKMHGAFSTNVVASKELQQPGSARSTRHLEIELPKEASYQEGDHLGVIPRNYEGIVNRVTARFGLDASQQIRLEAEEEKLAHLPLAKTVSVEELLQYVELQDPVTRTQLRAMAAKTVCPPHKVELEALLEKQAYKEQVLAKRLTMLELLEKYPACEMKFSEFIALLPSIRPRYYSISSSPRVDEKQASITVSVVSGEAWSGYGEYKGIASNYLAELQEGDTITCFISTPQSEFTLPKDPETPLIMVGPGTGVAPFRGFVQARKQLKEQGQSLGEAHLYFGCRSPHEDYLYQEELENAQSEGIITLHTAFSRMPNQPKTYVQHVMEQDGKKLIELLDQGAHFYICGDGSQMAPAVEATLMKSYADVHQVSEADARLWLQQLEEKGRYAKDVWAG
modifications: cytochrome P450NADPH-P-450 reductase precursor, cytochrome P450 (BM3), CYP102A1
Turning to B1, the “ee (cis)” value is 56 (chimeric P450s) and 57 under setting [1]. The de (([cis] − [trans])/([cis] + [trans]), chimeric P450s) was −28 and the de under setting [2] is given as −28. For the same molecule, the Absolute activity came out at 0.001704 (P450BM3 variants) and 0.001704 (chimeric P450s).

B2: WT A328V: P450BM3 variant: A328V (protein, listed as Bacillus megaterium)
chain: TIKEMPQPKTFGELKNLPLLNTDKPVQALMKIADELGEIFKFEAPGRVTRYLSSQRLIKEACDESRFDKNLSQALKFVRDFAGDGLFTSWTHEKNWKKAHNILLPSFSQQAMKGYHAMMVDIAVQLVQKWERLNADEHIEVPEDMTRLTLDTIGLCGFNYRFNSFYRDQPHPFITSMVRALDEAMNKLQRANPDDPAYDENKRQFQEDIKVMNDLVDKIIADRKASGEQSDDLLTHMLNGKDPETGEPLDDENIRYQIITFLIAGHETTSGLLSFALYFLVKNPHVLQKAAEEAARVLVDPVPSYKQVKQLKYVGMVLNEALRLWPTVPAFSLYAKEDTVLGGEYPLEKGDELMVLIPQLHRDKTIWGDDVEEFRPERFENPSAIPQHAFKPFGNGQRACIGQQFALHEATLVLGMMLKHFDFEDHTNYELDIKETLTLKPEGFVVKAKSKKIPLGGIPSPSTEQSAKKVRKKAENAHNTPLLVLYGSNMGTAEGTARDLADIAMSKGFAPQVATLDSHAGNLPREGAVLIVTASYNGHPPDNAKQFVDWLDQASADEVKGVRYSVFGCGDKNWATTYQKVPAFIDETLAAKGAENIADRGEADASDDFEGTYEEWREHMWSDVAAYFNLDIENSEDNKSTLSLQFVDSAADMPLAKMHGAFSTNVVASKELQQPGSARSTRHLEIELPKEASYQEGDHLGVIPRNYEGIVNRVTARFGLDASQQIRLEAEEEKLAHLPLAKTVSVEELLQYVELQDPVTRTQLRAMAAKTVCPPHKVELEALLEKQAYKEQVLAKRLTMLELLEKYPACEMKFSEFIALLPSIRPRYYSISSSPRVDEKQASITVSVVSGEAWSGYGEYKGIASNYLAELQEGDTITCFISTPQSEFTLPKDPETPLIMVGPGTGVAPFRGFVQARKQLKEQGQSLGEAHLYFGCRSPHEDYLYQEELENAQSEGIITLHTAFSRMPNQPKTYVQHVMEQDGKKLIELLDQGAHFYICGDGSQMAPAVEATLMKSYADVHQVSEADARLWLQQLEEKGRYAKDVWAG
modifications: cytochrome P450NADPH-P-450 reductase precursor, cytochrome P450 (BM3), CYP102A1
In the case of B2, under setting [2], the de is −100. Also, the Absolute activity (P450BM3 variants) is on record as 0.00083.

B3: WT T88L: P450BM3 variant: T88L (protein, listed as Bacillus megaterium)
chain: TIKEMPQPKTFGELKNLPLLNTDKPVQALMKIADELGEIFKFEAPGRVTRYLSSQRLIKEACDESRFDKNLSQALKFVRDFAGDGLFLSWTHEKNWKKAHNILLPSFSQQAMKGYHAMMVDIAVQLVQKWERLNADEHIEVPEDMTRLTLDTIGLCGFNYRFNSFYRDQPHPFITSMVRALDEAMNKLQRANPDDPAYDENKRQFQEDIKVMNDLVDKIIADRKASGEQSDDLLTHMLNGKDPETGEPLDDENIRYQIITFLIAGHETTSGLLSFALYFLVKNPHVLQKAAEEAARVLVDPVPSYKQVKQLKYVGMVLNEALRLWPTAPAFSLYAKEDTVLGGEYPLEKGDELMVLIPQLHRDKTIWGDDVEEFRPERFENPSAIPQHAFKPFGNGQRACIGQQFALHEATLVLGMMLKHFDFEDHTNYELDIKETLTLKPEGFVVKAKSKKIPLGGIPSPSTEQSAKKVRKKAENAHNTPLLVLYGSNMGTAEGTARDLADIAMSKGFAPQVATLDSHAGNLPREGAVLIVTASYNGHPPDNAKQFVDWLDQASADEVKGVRYSVFGCGDKNWATTYQKVPAFIDETLAAKGAENIADRGEADASDDFEGTYEEWREHMWSDVAAYFNLDIENSEDNKSTLSLQFVDSAADMPLAKMHGAFSTNVVASKELQQPGSARSTRHLEIELPKEASYQEGDHLGVIPRNYEGIVNRVTARFGLDASQQIRLEAEEEKLAHLPLAKTVSVEELLQYVELQDPVTRTQLRAMAAKTVCPPHKVELEALLEKQAYKEQVLAKRLTMLELLEKYPACEMKFSEFIALLPSIRPRYYSISSSPRVDEKQASITVSVVSGEAWSGYGEYKGIASNYLAELQEGDTITCFISTPQSEFTLPKDPETPLIMVGPGTGVAPFRGFVQARKQLKEQGQSLGEAHLYFGCRSPHEDYLYQEELENAQSEGIITLHTAFSRMPNQPKTYVQHVMEQDGKKLIELLDQGAHFYICGDGSQMAPAVEATLMKSYADVHQVSEADARLWLQQLEEKGRYAKDVWAG
modifications: cytochrome P450NADPH-P-450 reductase precursor, cytochrome P450 (BM3), CYP102A1
On to B3, for which, under setting [1], the “ee (cis)” value was determined as 23. Besides, the de under setting [2] is −78. The same molecule had an Absolute activity (P450BM3 variants) of 0.004522.

B4: 9-10A TS: V78A, P142S, T175I, A184V, S226R, H236Q, E252G, A290V, L353V, I366V, E442K (protein, listed as Bacillus megaterium)
chain: TIKEMPQPKTFGELKNLPLLNTDKPVQALMKIADELGEIFKFEAPGRVTRYLSSQRLIKEACDESRFDKNLSQALKFARDFAGDGLFTSWTHEKNWKKAHNILLPSFSQQAMKGYHAMMVDIAVQLVQKWERLNADEHIEVSEDMTRLTLDTIGLCGFNYRFNSFYRDQPHPFIISMVRALDEVMNKLQRANPDDPAYDENKRQFQEDIKVMNDLVDKIIADRKARGEQSDDLLTQMLNGKDPETGEPLDDGNIRYQIITFLIAGHETTSGLLSFALYFLVKNPHVLQKVAEEAARVLVDPVPSYKQVKQLKYVGMVLNEALRLWPTAPAFSLYAKEDTVLGGEYPLEKGDEVMVLIPQLHRDKTVWGDDVEEFRPERFENPSAIPQHAFKPFGNGQRACIGQQFALHEATLVLGMMLKHFDFEDHTNYELDIKETLTLKPKGFVVKAKSKKIPLGGIPSPSTEQSAKKVRKKAENAHNTPLLVLYGSNMGTAEGTARDLADIAMSKGFAPQVATLDSHAGNLPREGAVLIVTASYNGHPPDNAKQFVDWLDQASADEVKGVRYSVFGCGDKNWATTYQKVPAFIDETLAAKGAENIADRGEADASDDFEGTYEEWREHMWSDVAAYFNLDIENSEDNKSTLSLQFVDSAADMPLAKMHGAFSTNVVASKELQQPGSARSTRHLEIELPKEASYQEGDHLGVIPRNYEGIVNRVTARFGLDASQQIRLEAEEEKLAHLPLAKTVSVEELLQYVELQDPVTRTQLRAMAAKTVCPPHKVELEALLEKQAYKEQVLAKRLTMLELLEKYPACEMKFSEFIALLPSIRPRYYSISSSPRVDEKQASITVSVVSGEAWSGYGEYKGIASNYLAELQEGDTITCFISTPQSEFTLPKDPETPLIMVGPGTGVAPFRGFVQARKQLKEQGQSLGEAHLYFGCRSPHEDYLYQEELENAQSEGIITLHTAFSRMPNQPKTYVQHVMEQDGKKLIELLDQGAHFYICGDGSQMAPAVEATLMKSYADVHQVSEADARLWLQQLEEKGRYAKDVWAG
modifications: cytochrome P450NADPH-P-450 reductase precursor, cytochrome P450 (BM3), CYP102A1
notes: V78A, P142S, T175I, A184V, S226R, H236Q, E252G, A290V, L353V, I366V, E442K
As to B4, the “ee (cis)” value under setting [1] is reported as −54. Under setting [2], the de is −75. This molecule displayed an Absolute activity (P450BM3 variants) of 0.00192.

B5: 9-10A TS F87A: 9-10A TS + F87A (protein, listed as Bacillus megaterium)
chain: TIKEMPQPKTFGELKNLPLLNTDKPVQALMKIADELGEIFKFEAPGRVTRYLSSQRLIKEACDESRFDKNLSQALKFARDFAGDGLATSWTHEKNWKKAHNILLPSFSQQAMKGYHAMMVDIAVQLVQKWERLNADEHIEVSEDMTRLTLDTIGLCGFNYRFNSFYRDQPHPFIISMVRALDEVMNKLQRANPDDPAYDENKRQFQEDIKVMNDLVDKIIADRKARGEQSDDLLTQMLNGKDPETGEPLDDGNIRYQIITFLIAGHETTSGLLSFALYFLVKNPHVLQKVAEEAARVLVDPVPSYKQVKQLKYVGMVLNEALRLWPTAPAFSLYAKEDTVLGGEYPLEKGDEVMVLIPQLHRDKTVWGDDVEEFRPERFENPSAIPQHAFKPFGNGQRACIGQQFALHEATLVLGMMLKHFDFEDHTNYELDIKETLTLKPKGFVVKAKSKKIPLGGIPSPSTEQSAKKVRKKAENAHNTPLLVLYGSNMGTAEGTARDLADIAMSKGFAPQVATLDSHAGNLPREGAVLIVTASYNGHPPDNAKQFVDWLDQASADEVKGVRYSVFGCGDKNWATTYQKVPAFIDETLAAKGAENIADRGEADASDDFEGTYEEWREHMWSDVAAYFNLDIENSEDNKSTLSLQFVDSAADMPLAKMHGAFSTNVVASKELQQPGSARSTRHLEIELPKEASYQEGDHLGVIPRNYEGIVNRVTARFGLDASQQIRLEAEEEKLAHLPLAKTVSVEELLQYVELQDPVTRTQLRAMAAKTVCPPHKVELEALLEKQAYKEQVLAKRLTMLELLEKYPACEMKFSEFIALLPSIRPRYYSISSSPRVDEKQASITVSVVSGEAWSGYGEYKGIASNYLAELQEGDTITCFISTPQSEFTLPKDPETPLIMVGPGTGVAPFRGFVQARKQLKEQGQSLGEAHLYFGCRSPHEDYLYQEELENAQSEGIITLHTAFSRMPNQPKTYVQHVMEQDGKKLIELLDQGAHFYICGDGSQMAPAVEATLMKSYADVHQVSEADARLWLQQLEEKGRYAKDVWAG
modifications: cytochrome P450NADPH-P-450 reductase precursor, cytochrome P450 (BM3), CYP102A1
As for B5, the “ee (cis)” value under setting [1] is 5. Moreover, the de under setting [2] is recorded as −60. The same molecule registered an Absolute activity (P450BM3 variants) of 0.001546.
